In patent US20180072804A1 (Hoffmann-La Roche, published 2018):
Like-named read-outs stand apart in the source and are kept apart here.

Legend:
[1] = biological target: cynomolgus TIM-3 on isolated cyno CD14+ monocytes (cynomolgus monkey); experiment: FACS, cyno CD14+ monocytes, cyno3 (30085F)
[2] = biological target: T1, Fc-tagged human Tim3-ECD dimer (human, UniProt Q8TDQ0 22-202); experiment: SPR, Ab captured on anti-mouse IgG, 25 C
T1 construct: also called huTim3Fc; huFc fused dimeric human Tim3-ECD

monomeric human Tim3-ECD [3] = biological target: T2, monomeric human Tim3-ECD (human, UniProt Q8TDQ0 22-202); experiment: SPR, Ab captured on anti-mouse IgG, 25 C
T2 construct: also called huTim3; hu Tim3-ECD

[4] = biological target: T3, human TIM3, full length, on cells (human, UniProt Q8TDQ0 22-301); experiment: FACS competition, RPMI-8226 cells; competitor Tim3_0026
[5] = biological target: cynomolgus TIM-3 on isolated cyno CD14+ monocytes (cynomolgus monkey); experiment: FACS, cyno CD14+ monocytes, cyno1 (16719M)
[6] = biological target: T3, human TIM3, full length, on cells; experiment: FACS, human CD14+ monocytes, donor1, 10 µg/ml
[7] = biological target: T3, human TIM3, full length, on cells; experiment: cell ELISA, CHO-K1 with full-length human Tim3
Tim3-ECD-His-Biotin [8] = biological target: T4, Tim3-ECD-His-Biotin (human, UniProt Q8TDQ0 22-202, biotinylated with BirA Ligase); experiment: ELISA on human Tim3
T4 construct: Coated on streptavidin plates; also called human Tim3 (ELISA); Biochem Human

[9] = biological target: cynomolgus TIM-3 on isolated cyno CD14+ monocytes (cynomolgus monkey); experiment: FACS, cyno CD14+ monocytes, cyno2 (17435M)
[10] = biological target: T3, human TIM3, full length, on cells; experiment: FACS competition, RPMI-8226 cells; competitor Tim3_0016
[11] = biological target: T3, human TIM3, full length, on cells; experiment: FACS, human CD14+ monocytes, donor2, 10 µg/ml
[12] = biological target: T3, human TIM3, full length, on cells; experiment: FACS competition, RPMI-8226 cells; competitor Tim3_0018
[13] = biological target: T3, human TIM3, full length, on cells; experiment: FACS, human CD14+ monocytes, donor3, 10 µg/ml
[14] = biological target: T3, human TIM3, full length, on cells; experiment: cell-based or functional assay
[15] = biological target: T3, human TIM3, full length, on cells; experiment: FACS competition, RPMI-8226 cells; competitor Tim3_0028
[16] = biological target: monomeric cyno Tim3-ECD (cynomolgus); experiment: ELISA on cynomolgus Tim3
[17] = biological target: monomeric cyno Tim3-ECD (cynomolgus); experiment: SPR, Ab captured on anti-mouse IgG, 25 C
[18] = biological target: T3, human TIM3, full length, on cells; experiment: FACS competition, RPMI-8226 cells; competitor Tim3_0038
[19] = biological target: T3, human TIM3, full length, on cells; experiment: FACS competition, RPMI-8226 cells; competitor Tim3_0022
[20] = biological target: T3, human TIM3, full length, on cells; experiment: FACS, human CD14+ monocytes, donor2, isotype control
[21] = biological target: T3, human TIM3, full length, on cells; experiment: FACS, human CD14+ monocytes, donor3, isotype control
[22] = biological target: T3, human TIM3, full length, on cells; experiment: FACS, human CD14+ monocytes, donor1, isotype control
[23] = biological target: cynomolgus TIM-3 on isolated cyno CD14+ monocytes (cynomolgus monkey); experiment: FACS, cyno CD14+ monocytes, cyno1 (16719M), isotype control
[24] = biological target: cynomolgus TIM-3 on isolated cyno CD14+ monocytes (cynomolgus monkey); experiment: FACS, cyno CD14+ monocytes, cyno2 (17435M), isotype control
[25] = biological target: cynomolgus TIM-3 on isolated cyno CD14+ monocytes (cynomolgus monkey); experiment: FACS, cyno CD14+ monocytes, cyno3 (30085F), isotype control
[26] = biological target: T3, human TIM3, full length, on cells; experiment: cell ELISA, CHO-K1 with full-length human Tim3
Protocol: Then the reaction was stopped by addition of 25 μl/well 1N HCL-solution.

monomeric human Tim3-ECD [27] = biological target: T2, monomeric human Tim3-ECD; experiment: SPR, Ab captured on anti-mouse IgG, monomeric Tim3-ECD
[28] = biological target: T1, Fc-tagged human Tim3-ECD dimer; experiment: SPR, Ab captured on anti-mouse IgG, dimeric Tim3-ECD-Fc
Protocol: Therefore, an anti-mouse IgG was immobilized by amine coupling to the surface of a (BIAcore) CMS sensor chip. […] The sensor chip surface was regenerated after each analysis cycle. The equilibrium constant KD was finally gained by fitting the data to a 1:1 Langmuir interaction model.
The samples were injected for 30 seconds with a concentration of 200 μg/ml and bound to the spots 1 and 5 of each flow cell, allowing the measurement of eight samples in parallel. […] The flow rate was set to 30 μl/min for the whole run.
Finally the double referenced data was fitted to a 1:1 Langmuir interaction model with the BIAcore B4000 Evaluation Software.

[29] = biological target: T5, cynomolgus TIM-3 on isolated cyno CD14+ monocytes (cynomolgus monkey, UniProt A0A2K5U3G7 22-294); experiment: FACS, cyno CD14+ monocytes, cyno1 (16719M)
T5 construct: whole, on cells; also called cyno monocytes expressing TIM-3
T5 sequence: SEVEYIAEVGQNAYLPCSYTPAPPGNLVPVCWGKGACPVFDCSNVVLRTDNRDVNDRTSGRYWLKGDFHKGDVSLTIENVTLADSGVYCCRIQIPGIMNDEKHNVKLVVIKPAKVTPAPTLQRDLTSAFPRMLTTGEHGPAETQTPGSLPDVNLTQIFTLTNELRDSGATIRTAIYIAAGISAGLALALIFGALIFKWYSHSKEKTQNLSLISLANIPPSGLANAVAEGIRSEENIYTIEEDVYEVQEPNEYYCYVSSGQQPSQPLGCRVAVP
Description: (§1) CD14+ Monocytes were isolated from cynomolgus monkey anticoagulated peripheral blood (Covance) by density gradient centrifugation using Ficoll-Paque (GE Healthcare) (see General Protocols in the User Manuals or visit www.miltenyibiotec.com/protocols) and subsequent positive selection via NHP CD14 MicroBeads. First the CD14+ cells are magnetically labeled with CD14 MicroBeads. Then the cell suspension is loaded onto a MACS® Column which is placed in the magnetic field of a MACS Separator. The magnetically labeled CD14+ cells are retained in the column. The unlabeled cells run through, this cell fraction is depleted of CD14+ cells. After removal of the column from the magnetic field, the magnetically retained CD14+ cells can be eluted as the positively selected cell fraction. After centrifugation at 200×g for 10 min at room temperature the monocytes were harvested and used directly in binding assay or resuspended in freezing medium (10% DMSO, 90% FCS) at 1.0E+07 cells/ml and stored in liquid nitrogen.
(§2) After washing and centrifugation MFI signals of stained cells were analyzed by BD Biosciences FACSCanto flow cytometer.

Tim3-ECD-His-Biotin [30] = biological target: T4, Tim3-ECD-His-Biotin; experiment: ELISA on Tim3-ECD-His-Biotin
Protocol: After washing (3×90 μl/well with PBST-buffer) 25 μl/well sheep-anti-mouse-POD (GE NA9310V) was added in 1:9000 dilution and incubated at RT for 1 h while shaking at 400 rpm rotation. After washing (4×90 μl/well with PBST-buffer) 25 TMB substrate (Calbiochem, #CL07) was added and incubated until OD 1.5-2.5. Then the reaction was stopped by addition of 25 μl/well 1N HCL-solution.

[31] = biological target: T3, human TIM3, full length, on cells; experiment: cell-based or functional assay; remark: listed apart in the source
[32] = biological target: T5, cynomolgus TIM-3 on isolated cyno CD14+ …; experiment: FACS, cyno CD14+ monocytes, cyno2 (17435M)
Description: as §1, §2

[33] = biological target: T3, human TIM3, full length, on cells; experiment: cell-based or functional assay; remark: listed apart in the source
[34] = biological target: T5, cynomolgus TIM-3 on isolated cyno CD14+ …; experiment: FACS, cyno CD14+ monocytes, cyno3 (30085F)
Description: as §1, §2

[35] = biological target: T3, human TIM3, full length, on cells; experiment: cell-based or functional assay; remark: listed apart in the source
[36] = biological target: T3, human TIM3, full length, on cells; experiment: cell-based or functional assay; remark: listed apart in the source

Molecule: anti-human TIM-3 mouse monoclonal antibody clone F38-2E2
- Specific Binding [MFI] [1]: 124 MFI
- Kd [2]: 7.5 nM
- Kd (monomeric human Tim3-ECD [3]): 13.6 nM
- Max % Inhibition of Binding [4]: 2%
- Specific Binding [MFI] [5]: 135 MFI
- Specific Binding [MFI] [6]: 516 MFI
- EC50 [7]: 0.15 µg/mL
- Inflexion point [7]: 224 ng/mL
- EC50 (Tim3-ECD-His-Biotin [8]): 0.0732 µg/mL
- Inflexion point (Tim3-ECD-His-Biotin [8]): 88.3 ng/mL
- Specific Binding [MFI] [9]: 136 MFI
- Max % Inhibition of Binding [10]: -7%
- Specific Binding [MFI] [11]: 493 MFI
- Max % Inhibition of Binding [12]: 6%
- Specific Binding [MFI] [13]: 460 MFI
- IFNgamma release in MLR, % of rec hu IL-2 control, 1 µg/ml [14]: 7%
- IFNgamma release in MLR, % of rec hu IL-2 control, 10 µg/ml [14]: 26%
- IFNgamma release in MLR, % of rec hu IL-2 control, 40 µg/ml [14]: 36%
- Max % Inhibition of Binding [15]: 75%
- EC50 [16]: 0.423 µg/mL
- Inflexion point [16]: 210000 ng/mL
- Kd [17]: 168 nM
- Max % Inhibition of Binding [18]: 94%
- Max % Inhibition of Binding [19]: 77%

Molecule: M-IgG1 isotype control (antibody)
- Specific Binding [MFI] [20]: 55 MFI
- Specific Binding [MFI] [21]: 213 MFI
- Specific Binding [MFI] [22]: 144 MFI
- Specific Binding [MFI] [23]: 72 MFI
- Specific Binding [MFI] [24]: 82 MFI
- Specific Binding [MFI] [25]: 83 MFI

Molecule: anti-human TIM-3 rat monoclonal antibody clone 344823 (R&D Systems)
- Specific Binding [MFI] [1]: 143 MFI
- Max % Inhibition of Binding [4]: 3%
- Specific Binding [MFI] [5]: 158 MFI
- Specific Binding [MFI] [6]: 1010 MFI
- Specific Binding [MFI] [9]: 121 MFI
- Max % Inhibition of Binding [10]: 0%
- Specific Binding [MFI] [11]: 917 MFI
- Max % Inhibition of Binding [12]: 0%
- Specific Binding [MFI] [13]: 814 MFI
- Max % Inhibition of Binding [15]: 107%
- Max % Inhibition of Binding [18]: 99%
- Max % Inhibition of Binding [19]: 102%

Molecule: Rat-IgG2A isotype control (antibody)
- Specific Binding [MFI] [20]: 68 MFI
- Specific Binding [MFI] [21]: 70 MFI
- Specific Binding [MFI] [22]: 71 MFI
- Specific Binding [MFI] [23]: 84 MFI
- Specific Binding [MFI] [24]: 86 MFI
- Specific Binding [MFI] [25]: 91 MFI

B1: anti-TIM3 antibody Tim3_0038 (antibody, V domains shown)
VH: EVQLQQSGAEPLKPGASVKLTCTTSGFNIKDYYIHWVKQRSDQGLEWIGRIDPEDGELIYAPKFQDKATITVDTSSNIAYLQLNSLTSEDTAVYYCSRDHGYVGWFAYWGQGTLVTVSA
VL: NVVMTQSPKSMIMSVGQRVTLNCKASENVDTYVSWYQQKPEQSPKLLIYGASNRYTGVPDRFTGSRSATDFTLTISSVQAEDLAVYYCGQSYSYPWTFGGGTKLEFR
notes: Mouse monoclonal from hybridoma
- EC50 [26]: 0.029 µg/mL
- Kd [2]: 0.569 nM
- Kd (monomeric human Tim3-ECD [3]): 7.56 nM
- Kd (monomeric human Tim3-ECD [27]): 7.6 nM
- Specific Binding [MFI] [6]: 1640 MFI
- Kd [28]: 0.6 nM
- Specific Binding [MFI] [11]: 1370 MFI
- Specific Binding [MFI] [29]: 97 MFI
- EC50 (Tim3-ECD-His-Biotin [30]): 0.083 µg/mL
- cytotoxicity IC50, Pfeiffer cells, with <mFc> Fab PE24 [31]: < 0.002 nM
- Specific Binding [MFI] [13]: 1400 MFI
- Specific Binding [MFI] [32]: 107 MFI
- IFNgamma release in MLR, % of rec hu IL-2 control, 1 µg/ml [33]: 1%
- IFNgamma release in MLR, % of rec hu IL-2 control, 10 µg/ml [33]: 38%
- IFNgamma release in MLR, % of rec hu IL-2 control, 40 µg/ml [33]: 51%
- Specific Binding [MFI] [34]: 120 MFI

B2: anti-TIM3 antibody Tim3_0026 (antibody, V domains shown)
VH: QIQLVQSGPELKKPGETVKISCKASGYTFTDYSMHWVKQAPGRGLKWMGYINTETYEPTFGADFKGRFAFSLDTSATTAYLQINSLKTEDTATFFCGGGGYPAYWGQGTVVIVSA
VL: DVLMTQTPLSLPVSLGDQASISCRSSRTILHSSGNTYLEWYLQKPGQSPKLLIYKVSNRFSGVPDRFSGSGSGTDFTLNISRVEAEDLGVYYCFQDSHVPFTFGTGTKLEIK
notes: as for B1
- EC50 [26]: 0.069 µg/mL
- Kd [2]: 1.52 nM
- Kd (monomeric human Tim3-ECD [3]): 6.23 nM
- Kd (monomeric human Tim3-ECD [27]): 6.2 nM
- Specific Binding [MFI] [6]: 1660 MFI
- Kd [28]: 1.5 nM
- Specific Binding [MFI] [29]: 137 MFI
- EC50 (Tim3-ECD-His-Biotin [30]): 0.047 µg/mL
- cytotoxicity IC50, RPMI-8226, with <mFc> Fab PE24 [31]: > 64 nM
- Specific Binding [MFI] [13]: 900 MFI
- Specific Binding [MFI] [32]: 184 MFI
- IFNgamma release in MLR, % of rec hu IL-2 control, 1 µg/ml [33]: 18%
- IFNgamma release in MLR, % of rec hu IL-2 control, 10 µg/ml [33]: 16%
- IFNgamma release in MLR, % of rec hu IL-2 control, 40 µg/ml [33]: 25%
- Specific Binding [MFI] [34]: 197 MFI

B3: Tim3_0026, full length human IgG1 format (antibody, V domains shown)
VH: B2 VH
VL: B2 VL
- Max. killing, Pfeiffer cells, with anti-human Fc Fab PE24 [35]: 78.3%
- Max. killing, RPMI-8226 cells, with anti-human Fc Fab PE24 [35]: 83.1%
- Rel. IC50, Pfeiffer cells, with anti-human Fc Fab PE24 [35]: < 0.02 nM

B4: Fab-PE24 construct of anti-TIM3 antibody Tim3_0021 (Fab, V domains shown)
VH: QVQLQQSGPQLVRPGASVQISCKASGYSFTSYLLHWLKQRPGQGLEWIGMIDPSDSETRLNQKFKDKATLTVDKSSSTAYMQLSSPTSEDSAVYYCARDGYYAWYYFDCWGQGTTLTVSS
VL: DIVLTQSPATLSVTPGDRVSLSCRASQSIGNNLHWYQQKSHESPRLLIKYASHSISGIPSKFSGTGSGTDFTLSFNSVETEDFGMYFCQQSNSWPLTFGAGTKLELK
- Max. killing, Pfeiffer cells [36]: 98.4%

B5: Fab-PE24 construct of anti-TIM3 antibody Tim3_0033 (Fab, V domains shown)
VH: QGQMHQSGAELVKPGSSVKLSCKTSGFTFSSSFISWLKQKPGQSLEWIAWIYAATGSTSYNQKFTNKAQLTVDTSSSAAYMQFSSLTTEDSAIYYCARHAGYPHYYAMDYWGQGTSVTVSS
VL: DIQMTQSPASLSASVGETVTITCRASENIFSNLAWYQQKQGKSPQLLVYSATNLGDGVPSRFSGSGSGTQFSLKINSLQPEDFGNYYCQHFYKIPFTFGTGTKLEIK
- Max. killing, Pfeiffer cells [36]: 99.8%
- Max. killing, RPMI-8226 cells [36]: 99.7%
